Source: PMC11707192 (Nature Communications, 2025)

T1: UHRF1 TTD-PHD (deletion 167-175) (human, UniProt Q96T88 134-366, deletion 167-175)
T1 sequence (looked up): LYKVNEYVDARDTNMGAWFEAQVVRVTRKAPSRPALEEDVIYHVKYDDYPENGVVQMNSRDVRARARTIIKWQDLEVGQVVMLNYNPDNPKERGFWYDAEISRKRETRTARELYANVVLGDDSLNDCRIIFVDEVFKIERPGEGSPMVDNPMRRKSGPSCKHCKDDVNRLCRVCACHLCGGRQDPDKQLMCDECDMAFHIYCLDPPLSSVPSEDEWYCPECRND

B1: UHRF1 PHD domain (298-367) (domain or fragment, human, UniProt Q96T88 298-367, looked up)
chain: SGPSCKHCKDDVNRLCRVCACHLCGGRQDPDKQLMCDECDMAFHIYCLDPPLSSVPSEDEWYCPECRNDA
B2: UHRF1 TTD-PHD (134-366) (domain or fragment, human, UniProt Q96T88 134-366, looked up)
chain: LYKVNEYVDARDTNMGAWFEAQVVRVTRKAPSRDEPCSSTSRPALEEDVIYHVKYDDYPENGVVQMNSRDVRARARTIIKWQDLEVGQVVMLNYNPDNPKERGFWYDAEISRKRETRTARELYANVVLGDDSLNDCRIIFVDEVFKIERPGEGSPMVDNPMRRKSGPSCKHCKDDVNRLCRVCACHLCGGRQDPDKQLMCDECDMAFHIYCLDPPLSSVPSEDEWYCPECRND
B3: hSTE-1 (peptide of the hSTELLA Swap1 region, residues 75-121) (peptide, UniProt Q6W0C5 75-121, looked up)
peptide: EDEWLYSRRGVRTLLSVQREKMARLRYMLLGGVRTHERRPTNKEPKG
B4: mSTE-1 (peptide of the mSTELLA Swap1 region, residues 80-119) (peptide, UniProt Q8QZY3 80-119, looked up)
peptide: QSAFPKRRVRTLLSVLKDPIAKMRRLVRIEQRQKRLEGNE

Legend:
[1] = biological target: B4; experiment: ITC
[2] = biological target: B3; experiment: ITC
[3] = biological target: B1; experiment: ITC
UHRF1 TTD-PHD (134-366) = biological target: B2; experiment: ITC
[4] = biological target: T1, UHRF1 TTD-PHD (deletion 167-175); experiment: crystal structure

Kd [3] [nM]	Kd (UHRF1 TTD-PHD (134-366)) [nM]	binding result [4]	Binder	further results
–	–	–	B1	stoichiometry N [1]: 1; stoichiometry N [2]: 1
–	–	–	B2	fold more potent affinity than the H3K9me3 tail [1]: > 30 fold; fold weaker affinity than the H3K9me3 tail [2]: 4 fold
818	786	binds	B3	–
–	–	binds	KRRVRTLLSVLKDPIAKMRRLVRIEQRQKRLEGNE (peptide, UniProt Q8QZY3 85-119, looked up) [mSTE-2 (truncated peptide within mSTE-1, residue 85-119)]	binding result [3]: binds
91.2	5.84	–	B4	–
